First the molecules themselves.
B1: 375_B03 (antibody, V domains shown)
VH: EVQLLESGGGLVQPGGSLRLSCAASGFTFSSYSMNWVRQAPGKGLEWVAGINYNGGYTSYADSVKGRFTISRDNSKNTLYLQMNSLRAEDTAVYYCARGATWHDTHLDYWGQGTLVTVSS
VL: DIQMTQSPSSLSASVGDRVTITCRASQSILTYLNWYQQKPGKAPKLLIYAATSRASGVPSRFSGSGSGTDFTLTISSLQPEDFATYYCQQSYDSPLTFGGGTKVEIK
notes: VH/VL only
B2: 365_A03 (antibody, V domains shown)
VH: B1 VH with G55S, T58K, S59G, G99S, T101N, H106A
VL: B1 VL with T31S, L47V, A51V
notes: VH/VL only
B3: 365_F12 (antibody, V domains shown)
VH: B1 VH with S31D, A49S, G99S, T101N
VL: B1 VL with L33V, L47V, A55H, D93E, S94T
notes: VH/VL only
B4: 365_C02 (antibody, V domains shown)
VH: B1 VH with S30D, A49S, G50N, T58K, S59G
VL: B1 VL with L30S, L47V, A55H, D93E, S94N
notes: VH/VL only
B5: 365_C04 (antibody, V domains shown)
VH: B1 VH with S30D, G50N, T58K, S59G
VL: B1 VL with L47V, R54L, S94T
notes: VH/VL only
B6: 365_F05 (antibody, V domains shown)
VH: B1 VH with S33G, G50S
VL: B1 VL with L30V, L33V, D93E, S94T
notes: VH/VL only
B7: 365_E01 (antibody, V domains shown)
VH: B1 VH with S31D, A49S, G55S, T58K, S59G, G99S, T101N, H106A
VL: B1 VL with L30I, T31S
notes: VH/VL only
B8: 365_H05 (antibody, V domains shown)
VH: B1 VH with S33G
VL: B1 VL with L33V, R54L, A55H, D93S, S94T
notes: VH/VL only
B9: 365_B07 (antibody, V domains shown)
VH: B1 VH with S33G, N35H, G50S, G55S, G99S, T101N, H106A
VL: B1 VL with D93E, S94N
notes: VH/VL only
B10: 365_B11 (antibody, V domains shown)
VH: B1 VH with S33G, N35H, G99S, T101N, H106A
VL: B1 VL with L30I, T31S, L47V, A51T, A55H
notes: VH/VL only
B11: 365_D12 (antibody, V domains shown)
VH: B1 VH with S30D, S33G, A49S, G50N, S59G, G99S, T101N, H106A
VL: B1 VL with L30V, L47V, S94T
notes: VH/VL only
B12: 365_E09 (antibody, V domains shown)
VH: B1 VH with S33G, N35H, G50S, G55S, T58K, G99S, T101N, H106A
VL: B1 VL with L33V, L47V, Y92D
notes: VH/VL only
B13: 365_A09 (antibody, V domains shown)
VH: B1 VH with S33G, N35H, G50S
VL: B1 VL with T31S, L33V, S94L
notes: VH/VL only
B14: 365_E07 (antibody, V domains shown)
VH: B1 VH with S30D, S33G, N35H, A49S, G55S, R98K, G99S, T101N
VL: B1 VL with T31S, S94N
notes: VH/VL only
B15: 365_D09 (antibody, V domains shown)
VH: B1 VH with S33G, N35H, A49S, G55S, G99S, T101N, H106A
VL: B1 VL with T31S, Y92D, D93E
notes: VH/VL only
B16: 365_C11 (antibody, V domains shown)
VH: B1 VH with T58K, G99S, T101N
VL: B1 VL with L30I, L47V, A51V, D93S, S94L
notes: VH/VL only
B17: 365_D11 (antibody, V domains shown)
VH: B1 VH with S30D, S33G, A49S, G50N, G55S, G99S, T101N, H106A
VL: B1 VL with L30V, T31S, L47V, D93S
notes: VH/VL only
B18: 365_D02 (antibody, V domains shown)
VH: B1 VH with N35H, G50S
VL: B1 VL with L30V, R54L, S94N
notes: VH/VL only
B19: 365_D07 (antibody, V domains shown)
VH: B1 VH with S33G, A49S, G50S, G55S, T58K
VL: not shown
notes: VH/VL only
B20: 365_D10 (antibody, V domains shown)
VH: B1 VH with S59G
VL: B1 VL with L30S, D93E
notes: VH/VL only
B21: 365_G01 (antibody, V domains shown)
VH: B1 VH with S30D, S33G, G55S, T58K, G99S, T101N, H106A
VL: B1 VL with L33V, A51T
notes: VH/VL only
B22: 365_H02 (antibody, V domains shown)
VH: B1 VH with S31D, S33G, A49S, G50S, S59G, G99S, T101N
VL: B1 VL with D93E, S94N
notes: VH/VL only
B23: 365_A08 (antibody, V domains shown)
VH: B1 VH with G50S, T58K
VL: B1 VL with L30I, L47V, Y92D, D93N, S94T
notes: VH/VL only
B24: 365_A11 (antibody, V domains shown)
VH: B1 VH with S30D, S31D, S33G, A49S, G55S, G99S, T101N, H106A
VL: B1 VL with T31S, L47V, R54L, D93E
notes: VH/VL only
B25: 365_A12 (antibody, V domains shown)
VH: B1 VH with S33G, N35H, R98K, G99S, T101N
VL: B1 VL with L33V, A55H, D93E, S94N
notes: VH/VL only
B26: 365_F06 (antibody, V domains shown)
VH: B1 VH with S33G, G55S, T58K, G99S, T101N, H106A
VL: B1 VL with T31S, L33V, Y92D, D93N, S94L
notes: VH/VL only
B27: 365_G11 (antibody, V domains shown)
VH: B1 VH with S33G, G50N, S59G, G99S, T101N, H106A
VL: B1 VL with L30I, L33V, A51V, A55H, D93N
notes: VH/VL only
B28: 365_E11 (antibody, V domains shown)
VH: B1 VH with S30D, S31D, A49S, G50S, T58K
VL: not shown
notes: VH/VL only
B29: 365_E05 (antibody, V domains shown)
VH: B1 VH with S33G, N35H, G99S, T101N, H106A
VL: B1 VL with L30V, T31S, L33V, R54L, S94N
notes: VH/VL only
B30: 365_C10 (antibody, V domains shown)
VH: B1 VH with S33G, N35H, G50S, G99S, T101N, H106A
VL: B1 VL with T31S, L33V, R54L, D93E
notes: VH/VL only
B31: 369_F08 (antibody, V domains shown)
VH: B1 VH with S31D, S33G, N35H, A49S, G55S, T101N, H106A
VL: B1 VL with T31S, T52S, R54L, A55Q, S94L
notes: Group III

This passage reports optical density results from patent US20210380703A1 (RIGEL PHARMACEUTICALS, published 2021).

Positions count from the first letter of the chain named.
Further: test concentration or dose not given here.

Mouse ACVR2A, sequence (P27038 20-135 limits assumed): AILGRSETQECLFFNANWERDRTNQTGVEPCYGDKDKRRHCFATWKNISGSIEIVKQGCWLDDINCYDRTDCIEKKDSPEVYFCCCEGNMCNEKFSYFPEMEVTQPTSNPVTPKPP

The target in the first assay is T1, Goat anti-Human Kappa.
T1 construct: Positive control; also called biotinylated goat anti-human kappa light chain
Put plainly: ELISA; positive control. How it is done: (§1) The binding of ACVR2A-specific monoclonal antibodies to human ACVR2A, mouse ACVR2A, biotinylated goat anti-human kappa light chain (positive control) and human Fc (negative control) were determined by ELISA.
(ELISA stands for enzyme-linked immunosorbent assay.)
The molecule B1 came in with an optical density of 3.24 OD.

In turn, B2 had an optical density of 3.44 OD.

In turn, B3 yielded an optical density of 3.63 OD.

With B4, the optical density was 3.45 OD.

With B5, the optical density was 3.55 OD.

B6 showed an optical density of 3.42 OD.

Molecule B7 had an optical density of 3.54 OD.

Take B8: the optical density was determined as 3.46 OD.

On to B9, for which the optical density was determined as 3.23 OD.

Molecule B10 returned an optical density of 3.58 OD.

In the case of B11, the optical density was found to be 3.53 OD.

For the molecule B12, the optical density was 3.47 OD.

In the case of B13, the optical density was 3.3 OD.

In turn, B14 yielded an optical density of 3.51 OD.

As to B15, the optical density came to 3.38 OD.

Molecule B16 registered an optical density of 3.67 OD.

Take B17: the optical density stood at 3.38 OD.

For the molecule B18, the optical density worked out at 3.52 OD.

As for B19, the optical density is 3.38 OD.

On to B20, for which the optical density was 3.27 OD.

The molecule B21 gave an optical density of 3.45 OD.

The molecule B22 showed an optical density of 3.58 OD.

B23 showed an optical density of 3.2 OD.

B24 gave an optical density of 3.27 OD.

Consider B25, for which the optical density was determined as 3.67 OD.

On to B26, for which the optical density was 3.4 OD.

The molecule B27 yielded an optical density of 3.47 OD.

For B28, the optical density worked out at 3.57 OD.

In the case of B29, the optical density came out at 3.36 OD.

In turn, B30 displayed an optical density of 3.41 OD.

For another assay, the target named is T2, Human ACVR2A (human, UniProt P27037 20-135, limits assumed).
T2 construct: also called activin receptor, type II A
T2 sequence (P27037 20-135 limits assumed): as the sequence (P27038 20-135 limits assumed) above, with R20K, I73V counted along it
Put plainly: ELISA. How it is done: as §1
In the case of B1, the optical density is 3.68 OD.

B2: the optical density was 3.4 OD.

Turning to B3, the optical density worked out at 2.91 OD.

As for B4, the optical density came out at 2.15 OD.

In turn, B5 showed an optical density of 2.26 OD.

In turn, B6 returned an optical density of 2.14 OD.

Turning to B7, the optical density was found to be 2.91 OD.

In turn, B8 returned an optical density of 2.1 OD.

Turning to B9, the optical density is 2.11 OD.

In turn, B10 showed an optical density of 2.84 OD.

As to B11, the optical density is 2.57 OD.

B12 displayed an optical density of 1.91 OD.

Consider B13, for which the optical density worked out at 2.45 OD.

For B14, the optical density stood at 2.38 OD.

Turning to B15, the optical density was 1.52 OD.

Take B16: the optical density amounted to 2.66 OD.

As for B17, the optical density was 2.34 OD.

B18: the optical density was 2.54 OD.

Turning to B19, the optical density turned out to be 1.83 OD.

The molecule B20 had an optical density of 2.39 OD.

For the molecule B21, the optical density was 2.48 OD.

As to B22, the optical density was found to be 2.73 OD.

Molecule B23 registered an optical density of 1.58 OD.

For B24, the optical density is 2.04 OD.

As to B25, the optical density came out at 2.67 OD.

The molecule B26 gave an optical density of 1.95 OD.

B27 showed an optical density of 1.75 OD.

On to B28, for which the optical density is 1.74 OD.

In the case of B29, the optical density was found to be 2.18 OD.

For the molecule B30, the optical density turned out to be 2.45 OD.

A further assay has as its target Mouse ACVR2A (mouse, UniProt P27038 20-135, limits assumed). Put plainly: ELISA. The method, then: as §1
Turning to B1, the optical density worked out at 3.7 OD.

B2 displayed an optical density of 3.24 OD.

Molecule B3 registered an optical density of 2.83 OD.

As for B4, the optical density was determined as 2.33 OD.

In turn, B5 showed an optical density of 2.67 OD.

For the molecule B6, the optical density stood at 2.23 OD.

As to B7, the optical density is 2.84 OD.

The molecule B8 yielded an optical density of 2.19 OD.

In turn, B9 returned an optical density of 2.21 OD.

B10 came in with an optical density of 2.75 OD.

In the case of B11, the optical density was determined as 2.61 OD.

Regarding B12, the optical density came to 2.16 OD.

With B13, the optical density is 2.48 OD.

In turn, B14 registered an optical density of 2.7 OD.

For B15, the optical density came out at 1.35 OD.

The molecule B16 displayed an optical density of 2.78 OD.

B17 showed an optical density of 2.22 OD.

Regarding B18, the optical density was found to be 2.7 OD.

For the molecule B19, the optical density came to 2.06 OD.

B20 gave an optical density of 2.24 OD.

The molecule B21 came in with an optical density of 2.65 OD.

In the case of B22, the optical density amounted to 2.91 OD.

In turn, B23 showed an optical density of 1.59 OD.

Consider B24, for which the optical density was 1.94 OD.

As to B25, the optical density came to 2.87 OD.

For B26, the optical density is 2.08 OD.

Molecule B27 came in with an optical density of 1.78 OD.

Molecule B28 displayed an optical density of 1.74 OD.

B29 returned an optical density of 2.44 OD.

Consider B30, for which the optical density was determined as 2.44 OD.

Another assay has as its target T3, biotinylated goat anti-human kappa light chain.
T3 construct: positive control of the ELISA
Put plainly: ELISA, positive control. How it is done:
as §1
For the molecule B31, the optical density was 3.1 OD.
